The values below come from paper PMC3323580, “Lack of Evidence from Studies of Soluble Protein Fragments that Knops Blood Group Polymorphisms in Complement Receptor-Type 1 Are Driven by Malaria” (PLoS ONE, 2012).

The test has as its target T1, C1q, classical complement pathway protein (UniProt P02745 23-245; P02746 28-253; P02747 29-245).
T1 construct: Amine-coupled to a CM5 chip for SPR; in solution (140 ng/ml) for ELISA; source: bought: Complement Technology (Texas)
The test can be described thus: SPR; C3b (1620 RU), C4b (1518 RU) and C1q (2125 RU) amine-coupled on three flow cells of one CM5 chip; CR1 fragments flowed at 30 µl/min, Biacore T100, 25°C, HBS-EP pH 7.4 (10 mM Hepes, 150 mM saline, 3 mM EDTA, 0.05% polysorbate 20); steady-state fit, one-to-one model; duplicates. To be noted: both partners purified. On the technique in general: Surface plasmon resonance follows binding to a sensor surface in real time, without labels.

T1 sequence (P02745 23-245, chain 1 of 3): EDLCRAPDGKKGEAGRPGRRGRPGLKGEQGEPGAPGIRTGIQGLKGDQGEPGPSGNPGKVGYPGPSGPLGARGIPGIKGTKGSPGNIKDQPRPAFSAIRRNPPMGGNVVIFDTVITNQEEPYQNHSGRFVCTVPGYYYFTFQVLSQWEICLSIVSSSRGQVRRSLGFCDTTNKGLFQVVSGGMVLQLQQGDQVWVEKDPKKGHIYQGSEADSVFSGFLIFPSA
T1 sequence (P02746 28-253, chain 2 of 3): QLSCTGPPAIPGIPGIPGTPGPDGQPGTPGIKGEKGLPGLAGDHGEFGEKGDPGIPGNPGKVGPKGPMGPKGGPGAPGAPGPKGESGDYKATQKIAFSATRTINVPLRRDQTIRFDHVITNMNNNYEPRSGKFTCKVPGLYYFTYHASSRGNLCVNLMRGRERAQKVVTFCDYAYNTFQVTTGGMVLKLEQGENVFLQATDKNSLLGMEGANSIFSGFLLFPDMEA
T1 sequence (P02747 29-245, chain 3 of 3): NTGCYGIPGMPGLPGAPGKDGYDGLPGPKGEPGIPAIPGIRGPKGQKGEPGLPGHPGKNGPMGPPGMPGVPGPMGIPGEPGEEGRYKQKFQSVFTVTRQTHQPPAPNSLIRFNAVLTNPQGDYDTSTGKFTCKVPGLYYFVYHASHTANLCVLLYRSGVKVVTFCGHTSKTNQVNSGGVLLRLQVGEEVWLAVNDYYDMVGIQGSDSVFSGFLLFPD

B1: soluble CR1 (sCR1), full-length ectodomain of complement receptor-type 1 (receptor)
chain: not shown
notes: complement receptor-type 1 (CR1, CD35), human, soluble full-length ectodomain; also called full-length sCR1; source: a gift from Henry Marsh, Celdex Pharmaceuticals
As usually defined, the Kd is the equilibrium constant for the complex coming apart. Read a low Kd as a tighter complex. With B1, the Kd was determined as 8 ± 1 µM.
